Experiments:
[1] = target: mu (MOP) (h) (human) (UniProt P35372); experiment: radioligand displacement, reference compound of the assay (Ki Ref)
[2] = target: delta (DOP) (h) (human) (UniProt P41143); experiment: as above

Row | Ki [1] | Ki [2] | Substance
1 | 0.37 nM |  | DAMGO (peptide)
2 |  | 1.2 nM | DPDPE (peptide)

Source: US12427210B2, “Compounds comprising a fibroblast activation protein ligand and use thereof” (priority 2019, dated 2025)
